According to US20110009310A1 (CELECURE, published 2011):

How the values were obtained:
[1] = molecular target: VEGFR1 (isolated recombinant receptor) (UniProt P17948 27-756, limits assumed); assay: modified ELISA; CD44-3MUT coated on wells, recombinant VEGFR1 added, detected with anti-VEGFR antibody
Protocol: (§1) Modified ELISA tests to evaluate the binding of VEGFR2 (panel A) and VEGFR1 (panel B) to immobilized CD44-3MUT. […] Nonspecific binding was blocked with 2.5% non-fat dry milk solution. VEGFR1 and VEGFR2 were added into the coated wells and incubated for 1 h at RT. VEGFR binding was detected with anti-VEGFR antibodies
(§2) We have developed a modified ELISA test (to detect CD44-3MUT binding specificity to isolated recombinant receptors VEGFR1 and VEGFR2).

[2] = molecular target: VEGFR2 (isolated recombinant receptor) (UniProt P35968 20-764, limits assumed); assay: modified ELISA; CD44-3MUT coated on wells, recombinant VEGFR2 added, detected with anti-VEGFR antibody
Protocol: as §1, §2

VEGFR1 (isolated recombinant receptor), sequence (P17948 27-756 limits assumed): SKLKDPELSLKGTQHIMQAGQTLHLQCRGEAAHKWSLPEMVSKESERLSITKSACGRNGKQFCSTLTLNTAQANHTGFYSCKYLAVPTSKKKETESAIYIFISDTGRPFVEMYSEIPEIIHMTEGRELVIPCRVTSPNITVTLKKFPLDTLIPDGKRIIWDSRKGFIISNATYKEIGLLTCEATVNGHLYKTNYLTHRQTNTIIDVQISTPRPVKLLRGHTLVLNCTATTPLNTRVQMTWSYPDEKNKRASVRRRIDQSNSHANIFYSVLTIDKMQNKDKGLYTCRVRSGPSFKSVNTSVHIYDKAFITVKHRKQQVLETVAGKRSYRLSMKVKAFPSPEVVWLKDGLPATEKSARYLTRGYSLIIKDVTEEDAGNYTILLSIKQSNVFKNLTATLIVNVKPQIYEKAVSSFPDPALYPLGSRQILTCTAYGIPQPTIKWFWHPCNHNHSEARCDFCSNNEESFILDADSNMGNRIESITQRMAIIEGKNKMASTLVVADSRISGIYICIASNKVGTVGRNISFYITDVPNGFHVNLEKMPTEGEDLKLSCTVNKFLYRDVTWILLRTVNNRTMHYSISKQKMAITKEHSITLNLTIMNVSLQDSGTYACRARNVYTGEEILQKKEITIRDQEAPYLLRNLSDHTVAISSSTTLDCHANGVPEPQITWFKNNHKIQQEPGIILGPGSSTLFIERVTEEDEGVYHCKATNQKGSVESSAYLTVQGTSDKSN
VEGFR2 (isolated recombinant receptor), sequence (P35968 20-764 limits assumed): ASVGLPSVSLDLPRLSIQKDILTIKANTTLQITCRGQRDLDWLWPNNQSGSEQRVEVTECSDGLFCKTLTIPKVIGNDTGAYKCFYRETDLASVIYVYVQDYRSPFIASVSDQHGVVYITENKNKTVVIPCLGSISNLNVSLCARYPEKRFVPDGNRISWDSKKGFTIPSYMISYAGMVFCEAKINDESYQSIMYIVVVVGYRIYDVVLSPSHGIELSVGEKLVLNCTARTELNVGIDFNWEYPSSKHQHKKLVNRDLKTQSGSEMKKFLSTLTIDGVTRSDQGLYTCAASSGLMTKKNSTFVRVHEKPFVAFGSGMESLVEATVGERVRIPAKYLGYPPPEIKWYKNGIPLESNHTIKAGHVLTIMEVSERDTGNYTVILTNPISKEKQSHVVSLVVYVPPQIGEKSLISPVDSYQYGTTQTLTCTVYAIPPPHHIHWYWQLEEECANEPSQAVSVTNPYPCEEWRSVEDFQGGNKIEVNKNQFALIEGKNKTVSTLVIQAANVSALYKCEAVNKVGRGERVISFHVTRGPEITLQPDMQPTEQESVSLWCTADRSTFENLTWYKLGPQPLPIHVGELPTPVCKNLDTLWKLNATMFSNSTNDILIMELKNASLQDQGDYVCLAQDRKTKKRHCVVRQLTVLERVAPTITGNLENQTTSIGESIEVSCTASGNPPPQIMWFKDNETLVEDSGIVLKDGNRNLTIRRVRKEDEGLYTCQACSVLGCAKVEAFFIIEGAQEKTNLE

binding result [1]: no binding | binding result [2]: no binding
B1: CD44HABD^R41AR78SY79S (non-HA-binding triple mutant of the human CD44 hyaluronic acid binding domain) (other)
chain: QIDLNMTCRFAGVFHVEKNGAYSISRTEAADLCKAFNSTLPTMAQMEKALSIGFETCSSGFIEGHVVIPRIHPNSICAANNTGVYILTSNTSQYDTYCFNASAPPEEDCTSV
notes: Made in E. coli, non-glycosylated; also called CD44-3MUT; 3MUT
